The values that follow come from patent publication US5773001 (American Cyanamid Company, dated 1998).

The target of assay [1] is CD33 antigen (human) (UniProt P20138).
Assay [2] shares this target. Description: competition with 125I-labelled native antibody on HEL 92.1.7 cells; IC50 (reference) / IC50 (sample).
The target in the next assay is soluble CD33 antigen (Homo sapiens (Human), UniProt P20138). Description: inhibition of binding to HL60 cells by pre-incubation with soluble antigen.
Assay [3] concerns the target CD33 antigen (human) (UniProt P20138). Description: competition binding on HL60 cells against murine antibody.
For assay [4], the target named is polyepithelial mucin (PEM) antigen on cells (human) (UniProt P15941).
The target is the same in assay [5]. Description: competition with 125I-labelled native antibody on A2780DDP cells; IC50 (reference) / IC50 (sample).
For assay [6], the target named is T1, polymorphic epithelial mucin (PEM) (human, UniProt P15941). Description: reactivity of affinity column fractions with the CTM01 MAb.
Assay [7] concerns the target polyepithelial mucin (PEM) antigen on cells (human) (UniProt P15941). This is another data set of the same source.
For assay [8], the target named is T1, polymorphic epithelial mucin (PEM). As to the kind of experiment: competition EIA on PEM-coated plates; competitor biotinylated CTM01 MAb.

Like-named read-outs stand apart in the source and are kept apart here.

Chain of polyepithelial mucin (PEM) antigen on cells (human) (P15941 24-1255): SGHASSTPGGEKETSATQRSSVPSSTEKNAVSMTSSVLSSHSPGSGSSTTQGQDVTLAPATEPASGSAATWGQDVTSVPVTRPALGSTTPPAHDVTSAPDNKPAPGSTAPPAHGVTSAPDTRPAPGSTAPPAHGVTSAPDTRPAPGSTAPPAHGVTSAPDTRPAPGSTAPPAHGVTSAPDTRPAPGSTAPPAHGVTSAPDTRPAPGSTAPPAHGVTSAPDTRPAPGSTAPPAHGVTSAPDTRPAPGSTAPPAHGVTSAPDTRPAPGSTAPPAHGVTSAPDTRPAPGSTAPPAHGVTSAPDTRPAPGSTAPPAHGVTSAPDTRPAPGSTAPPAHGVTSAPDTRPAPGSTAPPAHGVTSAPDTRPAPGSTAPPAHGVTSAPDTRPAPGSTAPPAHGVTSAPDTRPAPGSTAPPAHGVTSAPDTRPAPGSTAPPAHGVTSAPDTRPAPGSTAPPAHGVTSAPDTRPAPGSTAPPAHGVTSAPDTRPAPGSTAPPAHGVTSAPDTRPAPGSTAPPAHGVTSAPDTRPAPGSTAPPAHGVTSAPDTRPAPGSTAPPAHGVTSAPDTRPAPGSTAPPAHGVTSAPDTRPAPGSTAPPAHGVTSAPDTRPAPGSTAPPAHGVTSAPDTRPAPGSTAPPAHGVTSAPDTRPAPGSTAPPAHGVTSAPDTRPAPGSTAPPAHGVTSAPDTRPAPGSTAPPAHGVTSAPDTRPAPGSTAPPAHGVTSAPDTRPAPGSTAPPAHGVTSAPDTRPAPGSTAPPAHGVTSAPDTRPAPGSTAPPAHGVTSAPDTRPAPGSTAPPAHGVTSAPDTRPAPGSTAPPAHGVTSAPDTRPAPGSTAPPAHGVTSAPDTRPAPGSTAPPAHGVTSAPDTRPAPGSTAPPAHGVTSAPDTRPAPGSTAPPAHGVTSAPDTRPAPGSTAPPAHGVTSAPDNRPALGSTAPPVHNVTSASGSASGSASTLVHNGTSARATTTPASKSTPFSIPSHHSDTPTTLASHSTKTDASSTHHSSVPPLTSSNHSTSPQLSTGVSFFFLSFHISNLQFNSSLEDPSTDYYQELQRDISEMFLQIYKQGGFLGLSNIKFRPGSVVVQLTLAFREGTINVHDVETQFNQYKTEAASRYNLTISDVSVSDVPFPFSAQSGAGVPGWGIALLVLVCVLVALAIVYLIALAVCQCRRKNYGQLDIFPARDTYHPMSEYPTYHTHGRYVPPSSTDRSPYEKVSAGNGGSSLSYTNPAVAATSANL

Take “Conjugate of 4-formylbenzoic acid (2) condensed with Calicheamicin N-acetyl gamma dimethyl hydrazide and m-P67.6 (antibody)”: the In vitro IC50 (3H-thymidine incorporation) with CD33 antigen (human) [1] stood at 4 ng/mL. This molecule also gave a Rel. Affinity with CD33 antigen (human) [2] of 1.05.

B1: h-P67.6 (antibody, V domains shown)
VH: EVQLVQSGAEVKKPGSSVKVSCKASGYTITDSNIHWVRQAPGQSLEWIGYIYPYNGGTDYNQKFKNRATLTVDNPTNTAYMELSSLRSEDTDFYYCVNGNPWLAYWGQGTLVTVSS
VL: DIQLTQSPSTLSASVGDRVTITCRASESLDNYGIRFLTWFQQKPGKAPKLLMYAASNQGSGVPSRFSGSGSGTEFTLTISSLQPDDFATYYCQQTKEVPWSFGQGTKVEVKR
Regarding B1, the binding result with soluble CD33 antigen was “binds”. In the assay with CD33 antigen (human) [3], the loss in immunoaffinity against the murine antibody amounted to 50%.

B2: Conjugate of 4-formylphenoxyacetic acid (1) condensed with Calicheamicin N-acetyl gamma dimethyl hydrazide and m-CT-M-01 (antibody, V domains shown)
VH: QIQLQQSGPELVKPGASVKISCKASGYTFTDYYINWMKQKPGQGLEWIGWIDPGSGNTKYNEKFKGKATLTVDTSSSTAYMQLSSLTSEDTAVYFCAREKTTYYYAMDYWGQGTSVTVSA
VL: DIVMTQAAPSVPVTPGESLSISCRSSKSLLHSNGDTFLYWFLQRPGQSPQLLIYRMSNLASGVPDRFSGSGSGTAFTLRVSRVEAEDVGVYYCMQHLEYPFTFGAGTKLELKR
modifications: drug-linker amide on lysine side chains, sites not stated; drug-linker amide on lysine side chains, sites not stated
With B2, the In vitro IC50 (3H-thymidine incorporation) in assay [4] is 1.5 ng/mL. In assay [5], the Rel. Affinity was 0.84.

B3: CTM01 MAb (antibody, V domains shown)
VH: QIQLQQSGPELVKPGASVKISCKASGYTFTDYYINWMKQKPGQGLEWIGWIDPGSGNTKYNEKFKGKATLTVDTSSSTAYMQLSSLTSEDTAVYFCAREKTTYYYAMDYWGQGTSVTVSA
VL: DIVMTQAAPSVPVTPGESLSISCRSSKSLLHSNGDTFLYWFLQRPGQSPQLLIYRMSNLASGVPDRFSGSGSGTAFTLRVSRVEAEDVGVYYCMQHLEYPFTFGAGTKLELKR
For the molecule B3, the binding result in [6] is listed as “binds”.

B4: Conjugate of 4-formylbenzoic acid (2) condensed with Calicheamicin N-acetyl gamma dimethyl hydrazide and m-CT-M-01 (antibody, V domains shown)
VH: QIQLQQSGPELVKPGASVKISCKASGYTFTDYYINWMKQKPGQGLEWIGWIDPGSGNTKYNEKFKGKATLTVDTSSSTAYMQLSSLTSEDTAVYFCAREKTTYYYAMDYWGQGTSVTVSA
VL: DIVMTQAAPSVPVTPGESLSISCRSSKSLLHSNGDTFLYWFLQRPGQSPQLLIYRMSNLASGVPDRFSGSGSGTAFTLRVSRVEAEDVGVYYCMQHLEYPFTFGAGTKLELKR
modifications: drug-linker amide on lysine side chains, sites not stated; drug-linker amide on lysine side chains, sites not stated
B4 displayed an In vitro IC50 (3H-thymidine incorporation) in assay [7] of 5.6 ng/mL. For the same molecule, in assay [5], the Rel. Affinity amounted to 0.9.

B5: gL1gH2 (antibody, V domains shown)
VH: QIQLVQSGAEVKKPGSSVKVSCKASGYTFTDYYINWMRQAPGQGLEWIGWIDPGSGNTKYNEKFKGRATLTVDTSTNTAYMELSSLRSEDTAFYFCAREKTTYYYAMDYWGQGTLVTVSS
VL: DIQMTQSPSTLSASVGDRVTITCRSSKSLLHSNGDTFLYWFQQKPGKAPKLLMYRMSNLASGVPSRFSGSGSGTEFTLTISSLQPDDFATYYCMQHLEYPFTFGQGTKVEVKR
As to B5, the binding result in assay [8] is given as “binds”.
